B1: Tyrosine-protein phosphatase non-receptor type 1 (Homo sapiens), P18031 (parent)
chain: MEMEKEFEQIDKSGSWAAIYQDIRHEASDFPCRVAKLPKNKNRNRYRDVSPFDHSRIKLHQEDNDYINASLIKMEEAQRSYILTQGPLPNTCGHFWEMVWEQKSRGVVMLNRVMEKGSLKCAQYWPQKEEKEMIFEDTNLKLTLISEDIKSYYTVRQLELENLTTQETREILHFHYTTWPDFGVPESPASFLNFLFKVRESGSLSPEHGPVVVHCSAGIGRSGTFCLADTCLLLMDKRKDPSSVDIKKVLLEMRKFRMGLIQTADQLRFSYLAVIEGAKFIMGDSSVQDQWKELSHEDLEPPPEHIPPPPRPPKRILEPHNGKCREFFPNHQWVKEETQEDKDCPIKEEKGSPLNAAPYGIESMSQDTEVRSRVVGGSLRGAQAASPAKGEPSLPEKDEDHALSYWKPFLVNMCVATVLTAGAYLCYRFLFNSNT

Variants of B1 are the subject of the assay. To be noted: with insr_human INSR.
For D181A, the “effect of a mutation on the interaction” value is reported as “increasing interaction”.

The values are drawn from IntAct's records for PubMed 16582879.
